{"source": "patent CN117624352A", "about": "(UNIV XIAMEN, dated 2024)", "key": {"[1]": {"target": "T1, Tmem176b表达纯化抗原142-196aa xy02b-hFc-6His(Abclonal) (mouse, UniProt Q9R1Q6 142-196)", "T1 construct": "range 142-196; also called 体外表达纯化抗原Tmem176b; Tmem176b抗原; not shown: hFc of the xy02b-hFc-6His vector; 6His tag", "T1 sequence (looked up)": "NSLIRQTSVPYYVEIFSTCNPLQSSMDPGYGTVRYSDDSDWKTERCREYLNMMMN", "assay": "Biacore (SPR); antigen coupled to the chip, 6E8 as analyte at 1.5625-50 nM; mean of 3 runs"}, "[2]": {"target": "T1, Tmem176b表达纯化抗原142-196aa …", "assay": "Capture ELISA; antibody coated at 2 μg/mL, antigen titrated from 0.1 μg/ml in 3-fold steps"}}}
{"binder": "Tmem176b单克隆抗体6E8 (antibody, V domains shown, Recombinant rabbit monoclonal antibody; also called α-Tmem176b单抗(6E8); Tmem176b单抗6E8) VH: QSVEESGGRLLKPDETLTLTCTVSGFSLSSYAMSWVRQAPGKGLEWIGIISIRGNTYYASWAKGRFTISKTSTTVDLKITSPTTEDTATYFCARNTLYSSGWGGSDLWGQGTLVTVSS VL: AQVLTQTPSPVSAAVGGTVTINCQASQSVYNNNNLAWYQQKPGQPPKLLIYYASTLASGVSSRFKGSGSGTQFTLTISGVQCDDAATYYCQGEFSCSSADCNAFGGGTEVVVKG", "values": [{"measurement": "Kd", "setting": "[1]", "value": 0.959, "unit": "nM"}, {"measurement": "EC50", "setting": "[2]", "value": 0.893, "unit": "ng/mL"}]}
